Assay [1] concerns the target lipase A (LipA) from Pseudomonas aeruginosa PAO1, wild type (P. aeruginosa PAO1) (UniProt P26876).
Assay [2] addresses fluorescein-5-maleimide-labelled wild-type lipase A (P. aeruginosa PAO1) (UniProt P26876).
Assay [3] addresses periplasmic chaperone FkpA of P. aeruginosa (P. aeruginosa PAO1). The experiment in a line: SEC-MALS; isolated chaperones at 2 mg/ml, Superdex 200 Increase 10/300 GL; FkpA, SurA and PpiD in 50 mM KCl, 5 mM MgCl2, 20 mM HEPES-KOH pH 7.4; YfgM in 5 mM glycine, 20 mM NaCl, 5 mM Tris-HCl pH 8.5; Skp in 100 mM NaCl, 20 mM Tris-HCl pH 8.0; LipH in 100 mM NaCl, 200 µM TCEP, 50 mM Tris-HCl pH 8.0.

The target of assay [4] is lipase A mutant LipA_(F144E) (P. aeruginosa PAO1) (UniProt P26876). The experiment in a line: SEC-MALS; LipA_(F144E):Skp mixture (molar ratio 1:3) compared with Skp3 alone; SDS-PAGE and densitometry of the peak fractions.
The target of assay [5] is lipase A (LipA) from Pseudomonas aeruginosa PAO1, wild type (P. aeruginosa PAO1) (UniProt P26876). This is another data set of the same source.
Assay [6] deals with periplasmic chaperone Skp of P. aeruginosa (P. aeruginosa PAO1). The experiment in a line: SAXS; Skp at 1.20 mg/ml, 15 °C; ab initio reconstitution with P3 symmetry (GASBOR).
Assay [7] has as its target fluorescein-5-maleimide-labelled lipase A mutant LipA_(F144E) (P. aeruginosa PAO1) (UniProt P26876). The experiment in a line: MST; FM-labelled LipA_(F144E) kept constant, Skp titrated (monomer concentrations); TGCG buffer with 0.05% Tween 20; 15 min at 22°C; Monolith NT.115.
Assay [8] concerns the target fluorescein-5-maleimide-labelled wild-type lipase A (P. aeruginosa PAO1) (UniProt P26876). The source holds these as a separate data set.
Assay [9] deals with periplasmic chaperone Skp of P. aeruginosa (P. aeruginosa PAO1). The experiment in a line: SEC-MALS; isolated chaperones at 2 mg/ml, Superdex 200 Increase 10/300 GL; FkpA, SurA and PpiD in 50 mM KCl, 5 mM MgCl2, 20 mM HEPES-KOH pH 7.4; YfgM in 5 mM glycine, 20 mM NaCl, 5 mM Tris-HCl pH 8.5; Skp in 100 mM NaCl, 20 mM Tris-HCl pH 8.0; LipH in 100 mM NaCl, 200 µM TCEP, 50 mM Tris-HCl pH 8.0.

Turning to “lipase-specific foldase LipH lacking the TMD (domain or fragment)”, in [1], the inhibition of pNPB hydrolysis by wild-type LipA with LipH and Skp3 added simultaneously (LipA:LipH:chaperone 1:1:5, 50 mM NaCl) was under 10%. In addition, the soluble fraction of LipA in the sedimentation assay, 150 mM NaCl, LipA:LipH molar ratio 1:1 in [2] is over 80%.
In [3], “periplasmic chaperone FkpA of P. aeruginosa (natural protein)” yielded a stoichiometry N of 2.
On to “periplasmic chaperone Skp of P. aeruginosa (natural protein)”, for which, in assay [4], the LipA:Skp3 ratio by densitometry of the peak fractions (Skp3 per LipA) stood at 3 and the stoichiometry N (Skp3 per LipA) was determined as 2. This substance came in with a soluble fraction of LipA in the sedimentation assay, 150 mM NaCl, 0.5 µM LipA and 5 µM Skp3 in assay [2] of 66%. In addition, the decrease in ThT fluorescence of LipA aggregates in the presence of Skp3 (0.5 µM LipA, 5 µM Skp3) in assay [5] was 75%. The same substance registered a stoichiometry N in assay [6] of 3. In assay [7], the KD of the first (high-affinity) binding mode was 0.02 µM and the KD of the second (low-affinity) binding mode was found to be 2 µM. The soluble fraction of LipA in the sedimentation assay at LipA:Skp3 molar ratios 1:10, 1:3 and 1:1; value at 1:10 and 1:3, dropped dramatically at 1:1 in assay [8] is over 70%. In assay [9], this substance registered a stoichiometry N of 3.
